Results on three molecules are retold here after US20230340055A1 (published 2023).

Like-named read-outs stand apart in the source and are kept apart here.

For assay [1], the target named is T1, IL-2Rβγ (dimeric intermediate affinity IL-2 receptor), human, on cells (human, UniProt P14784 27-551; P31785 23-369).
T1 sequence (looked up) 1: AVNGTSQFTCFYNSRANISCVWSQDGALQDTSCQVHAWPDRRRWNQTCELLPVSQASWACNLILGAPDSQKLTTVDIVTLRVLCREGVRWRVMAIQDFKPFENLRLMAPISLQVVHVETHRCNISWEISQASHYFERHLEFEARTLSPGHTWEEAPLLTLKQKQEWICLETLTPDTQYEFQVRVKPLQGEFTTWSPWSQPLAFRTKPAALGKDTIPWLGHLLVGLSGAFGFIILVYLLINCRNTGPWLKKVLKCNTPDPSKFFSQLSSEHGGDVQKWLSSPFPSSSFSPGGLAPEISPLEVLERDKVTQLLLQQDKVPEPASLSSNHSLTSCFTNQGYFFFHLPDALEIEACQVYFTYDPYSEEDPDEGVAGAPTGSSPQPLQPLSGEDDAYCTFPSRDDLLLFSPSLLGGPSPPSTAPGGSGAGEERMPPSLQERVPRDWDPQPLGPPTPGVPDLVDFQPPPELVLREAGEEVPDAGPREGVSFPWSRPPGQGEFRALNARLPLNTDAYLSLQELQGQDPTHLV
T1 sequence (looked up) 2: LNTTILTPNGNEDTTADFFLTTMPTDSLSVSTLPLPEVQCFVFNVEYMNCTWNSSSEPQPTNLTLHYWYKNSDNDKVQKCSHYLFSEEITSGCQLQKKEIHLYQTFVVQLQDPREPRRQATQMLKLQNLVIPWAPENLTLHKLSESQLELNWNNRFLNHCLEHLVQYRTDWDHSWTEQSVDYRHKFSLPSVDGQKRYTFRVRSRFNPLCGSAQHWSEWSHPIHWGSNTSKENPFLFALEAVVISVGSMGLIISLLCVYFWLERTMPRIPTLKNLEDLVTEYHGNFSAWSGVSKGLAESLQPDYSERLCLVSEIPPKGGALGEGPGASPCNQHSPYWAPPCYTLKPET
As to the kind of experiment: cell-based or functional assay.

Assay [2] has as its target T2, IL-2Rαβγ (trimeric high-affinity IL-2 receptor), human, on cells (human, UniProt P01589 22-272; P14784 27-551; P31785 23-369).
T2 sequence (looked up) 1: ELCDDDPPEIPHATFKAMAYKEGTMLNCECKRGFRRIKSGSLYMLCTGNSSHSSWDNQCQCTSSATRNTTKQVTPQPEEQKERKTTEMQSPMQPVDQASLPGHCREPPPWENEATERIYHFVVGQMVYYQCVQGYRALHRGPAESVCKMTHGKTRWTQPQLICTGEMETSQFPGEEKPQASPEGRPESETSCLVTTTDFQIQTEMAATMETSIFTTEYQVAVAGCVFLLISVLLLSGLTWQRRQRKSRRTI
T2 sequence (looked up) 2: T1 sequence (looked up) 1
T2 sequence (looked up) 3: T1 sequence (looked up) 2
As to the kind of experiment: cell-based or functional assay.

The target of assay [3] is T3, Human IL-2 Receptor alpha, Fc-Tag (Symansis, New Zealand) (human, UniProt P01589 22-240).
T3 construct: extracellular domain; Bought reagent; also called IL-2Rα; IL-2Rα-Fc; not shown: Fc-Tag (captured by anti-human IgG (Fc) antibody)
T3 sequence (looked up): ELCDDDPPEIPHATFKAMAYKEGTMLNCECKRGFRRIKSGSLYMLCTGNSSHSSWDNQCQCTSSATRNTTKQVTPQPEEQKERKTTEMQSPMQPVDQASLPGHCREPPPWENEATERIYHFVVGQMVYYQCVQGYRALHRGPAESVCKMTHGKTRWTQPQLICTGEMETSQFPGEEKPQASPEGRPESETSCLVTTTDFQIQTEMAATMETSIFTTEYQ
The assay can be described thus: SPR; KD to IL-2Rα divided by KD to IL-2Rβ of the same compound. The protocol: (§1) For the determination of binding kinetics to IL-2Rα the following chip preparation was used: Human IL-2 Receptor alpha, Fc-Tag (Symansis, New Zealand) was diluted in HBS-EP running buffer (GE Healthcare, 10 mM HEPES, 150 mM NaCl, 3 mM EDTA, 0.05% Surfactant P20, pH 7.4) to approx. 0.67 µg/mL and immobilized at a flow rate of 50 µL/min for 60 s to achieve 80 - 100 response units (RU).
(§2) For the determination of binding kinetics to IL-2Rβ the following chip preparation was used: Human IL-2 Receptor beta, Fc-Tag (Symansis, New Zealand) was diluted in HBS-EP running buffer (GE Healthcare, 10 mM HEPES, 150 mM NaCl, 3 mM EDTA, 0.05% Surfactant P20, pH 7.4) to around 0.80 µg/mL and immobilized at a flow rate of 50 µL/min for 60 s to achieve 140 - 180 response units (RU).
(§3) (50 µL/min flow rate, 60 s contact time, 300 s dissociation time). Double referenced data (subtracted data from the reference flow cell and the buffer only samples) was analysed via a kinetic fit (1:1 binding model) to determine KD, kₐ and kd. Regeneration after each cycle was performed with 3 M MgCl₂.
For orientation: Surface plasmon resonance follows binding to a sensor surface in real time, without labels.

Assay [4] deals with T3, Human IL-2 Receptor alpha, Fc-Tag …. The assay can be described thus: calculated from the SPR KD values of Example 7; reference protein 5a. The method, then: as §1, §2, §3
Assay [5] addresses T4, Human IL-2 Receptor beta, Fc-Tag (Symansis, New Zealand) (human, UniProt P14784 27-240).
T4 construct: extracellular domain; Bought reagent; also called IL-2Rβ; IL-2Rβ-Fc; not shown: Fc-Tag (captured by anti-human IgG (Fc) antibody)
T4 sequence (looked up): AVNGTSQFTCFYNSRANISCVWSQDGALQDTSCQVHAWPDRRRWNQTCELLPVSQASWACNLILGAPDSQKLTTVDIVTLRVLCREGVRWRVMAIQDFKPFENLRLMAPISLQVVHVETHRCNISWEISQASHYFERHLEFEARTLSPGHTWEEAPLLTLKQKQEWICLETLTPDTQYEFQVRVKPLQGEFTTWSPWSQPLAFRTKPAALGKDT
The assay can be described thus: SPR (Biacore T200), IL-2Rβ-Fc captured on anti-human IgG (Fc) CM5 chip, IL-2 as analyte, multi-cycle kinetics, 1:1 kinetic fit, 25 C. The protocol: as §2, §3

The target of assay [6] is T5, IL-2-Rα/β/γ on the murine CTLL-2 T lymphocyte cell line (murine, UniProt P01590 22-268; P16297 27-539; P34902 23-369).
T5 sequence (looked up) 1: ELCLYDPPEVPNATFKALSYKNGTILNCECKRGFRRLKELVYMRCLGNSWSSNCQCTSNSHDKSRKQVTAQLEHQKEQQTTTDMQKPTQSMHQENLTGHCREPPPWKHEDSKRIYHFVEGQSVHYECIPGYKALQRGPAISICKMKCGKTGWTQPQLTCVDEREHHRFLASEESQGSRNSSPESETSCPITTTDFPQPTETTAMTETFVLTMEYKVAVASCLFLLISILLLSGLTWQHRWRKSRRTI
T5 sequence (looked up) 2: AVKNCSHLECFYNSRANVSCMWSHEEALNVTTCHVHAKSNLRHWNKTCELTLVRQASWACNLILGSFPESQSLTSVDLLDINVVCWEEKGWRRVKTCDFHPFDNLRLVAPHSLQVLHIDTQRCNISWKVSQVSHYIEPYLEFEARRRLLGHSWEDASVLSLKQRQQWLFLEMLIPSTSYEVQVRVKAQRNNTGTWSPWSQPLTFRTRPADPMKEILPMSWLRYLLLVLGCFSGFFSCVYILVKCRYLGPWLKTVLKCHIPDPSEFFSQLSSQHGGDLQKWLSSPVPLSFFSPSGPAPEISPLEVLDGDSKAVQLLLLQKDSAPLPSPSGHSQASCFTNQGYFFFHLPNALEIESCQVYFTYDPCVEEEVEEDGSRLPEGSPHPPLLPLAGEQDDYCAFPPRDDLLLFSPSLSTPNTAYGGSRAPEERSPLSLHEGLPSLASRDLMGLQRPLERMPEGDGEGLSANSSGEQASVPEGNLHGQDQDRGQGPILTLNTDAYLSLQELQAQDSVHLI
T5 sequence (looked up) 3: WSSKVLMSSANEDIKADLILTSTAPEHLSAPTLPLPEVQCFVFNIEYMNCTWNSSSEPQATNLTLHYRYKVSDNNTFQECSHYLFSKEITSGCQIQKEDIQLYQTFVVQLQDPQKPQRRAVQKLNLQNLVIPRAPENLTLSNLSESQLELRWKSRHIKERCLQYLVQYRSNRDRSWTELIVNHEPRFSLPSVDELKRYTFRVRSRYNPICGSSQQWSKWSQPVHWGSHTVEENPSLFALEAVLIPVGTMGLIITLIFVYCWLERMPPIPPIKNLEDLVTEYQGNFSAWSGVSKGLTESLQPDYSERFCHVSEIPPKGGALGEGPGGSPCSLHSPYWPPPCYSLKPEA
The assay can be described thus: cell-based or functional assay.

In assay [7] the target is T1, IL-2Rβγ (dimeric intermediate affinity …). As to the kind of experiment: cell-based or functional assay. The source holds these as a separate data set.
The target is the same in assay [8]. The assay can be described thus: cell-based or functional assay. This is another data set of the same source.
Assay [9] deals with T2, IL-2Rαβγ (trimeric high-affinity IL-2 …). The assay can be described thus: cell-based or functional assay. The source holds these as a separate data set.
The target in assay [10] is T1, IL-2Rβγ (dimeric intermediate affinity …). As to the kind of experiment: cell-based or functional assay. This is another data set of the same source.
Assay [11] concerns the target T2, IL-2Rαβγ (trimeric high-affinity IL-2 …). The assay can be described thus: cell-based or functional assay. This is another data set of the same source.

B1: protein 1f (ligand)
chain: APTSSSTKKTQLQLEHLLLDLQMILNGINNYKNPKLTFGNSTKFYMPKKATELKHLQCLEEELKPLEEVLNLAQSKNFHLRPRDLISNINVIVLELKGSETTFMCEYADETATIVEFLNRWITFSQSIISTLT
modifications: N-glycosylated at the introduced N-glycosylation site (motif FGNST, peptide LTFGNSTK; heterogeneous glycans); heterogeneous O-glycosylation at the wildtype O-glycosylation site
notes: also called N-glycosylated IL2 (1f)
Consider B1, for which, in [1], the “Ave EC50, pSTAT5 MFI, CD8+ T cells (human whole blood)” value is 54.8 ng/ml; the “Ave EC50, pSTAT5 MFI, NK cells (human whole blood)” value worked out at 7.35 ng/ml; the “Fold reduction in potency vs WT-IL2 (1d), pSTAT5 MFI, CD8+ T cells” value was 2.13 fold; the “Fold reduction in potency vs WT-IL2 (1d), pSTAT5 MFI, NK cells” value turned out to be 1.22 fold. Moreover, in assay [2], the “Ave EC50, pSTAT5 MFI, T regulatory cells (human whole blood)” value amounted to 33.5 ng/ml and the “Fold reduction in potency vs WT-IL2 (1d), pSTAT5 MFI, T regulatory cells” value is 372 fold. For the same molecule, in assay [3], the “KD-Ratio (α/β)” value is above 4.02. Besides, the “ratio of Ratio protein 1f to Ratio protein 5a (KD to IL-2Rα / KD to IL-2Rβ)” value in assay [4] was above 200. Moreover, in [5], binding was characterised by a dissociation constant (Kd) of 993 nM.

B2: conjugate release mixture 8 (other)
chain: B1 chain
modifications: glycosylated as protein 6; residual conjugate 7 in the mixture carries one 40 kDa mPEG-linker on a primary amine of the N-terminus or a lysine side chain
Turning to B2, in assay [6], the “EC50 CTLL-2, STAT5 phosphorylation” value was 1.57 µg/mL and the “Ratio (E50 CTLL-2 cells/EC50 HH cell)” value came out at 39.5. Moreover, the “EC50 HH cells, STAT5 phosphorylation” value in assay [7] came to 0.0398 µg/mL.

B3: protein 1a (ligand)
chain: APTSSSTKKTQLQLEHLLLDLQMILNGINNYKNPKLTFGNSTKFYMPKKATELKHLQCLEEELKPLEEVLNLAQSKNFHLRPRDLISNINVIVLELKGSETTFMCEYADETATIVEFLNRWITFSQSIISTLTHHHHHH
modifications: N-glycosylated (at least 90% by SDS-PAGE shift, removed by PNGase F)
B3: in assay [8], the “Ave EC50, pSTAT5 MFI, CD8+ T cells (human whole blood)” value was found to be 12.6 ng/ml; the “Ave EC50, pSTAT5 MFI, NK cells (human whole blood)” value came out at 3.07 ng/ml; the “Fold reduction in potency vs WT-IL2 (1d), pSTAT5 MFI, CD8+ T cells” value worked out at 1.44 fold; the “Fold reduction in potency vs WT-IL2 (1d), pSTAT5 MFI, NK cells” value worked out at 1.34 fold. Further, in assay [9], the “Ave EC50, pSTAT5 MFI, T regulatory cells (human whole blood)” value worked out at 7.93 ng/ml and the “Fold reduction in potency vs WT-IL2 (1d), pSTAT5 MFI, T regulatory cells” value turned out to be 437 fold. In assay [10], the “Ave EC50, pSTAT5 percent positive, CD8+ T cells (human whole blood)” value came out at 1.69 ng/ml; the “Ave EC50, pSTAT5 percent positive, NK cells (human whole blood)” value was 0.371 ng/ml; the “Fold reduction in potency vs WT-IL2 (1d), pSTAT5 percent positive, CD8+ T cells” value was determined as 1.58 fold; the “Fold reduction in potency vs WT-IL2 (1d), pSTAT5 percent positive, NK cells” value came out at 2.01 fold. In assay [11], the “Ave EC50, pSTAT5 percent positive, T regulatory cells (human whole blood)” value turned out to be 1.06 ng/ml and the “Fold reduction in potency vs WT-IL2 (1d), pSTAT5 percent positive, T regulatory cells” value is 598 fold.

By Kd is commonly meant the equilibrium constant for the complex coming apart. A low value points to tighter binding.
